Test results taken from paper PMC6376064.

Target: Nrf2 (UniProt Q60795)
Experiment: anti-Flag (Nrf2) co-IP, immunoblot
Conditions: reference: Keap1 wild type; sites T51,S53,T55,T80

How did the “binding against the reference” value turn out when Keap1 (from UniProt Q9Z2X8) Keap1 4A was run?
Its value is “stronger”.
